In US10941182 (Amgen, dated 2021):
Starred links: 1 amine or outer side, 2 acyl side, 3 side chain; linkers in the order of their positions; H or OH if unused. Non-standard residues stand in square brackets, D forms with d. *: point of attachment. AC4Abu = α-carboxy-4-aminobutyric acid, O=C(C(CCN[*:1])C(=O)[*:3])[*:2]; dBip = N[C@H](Cc1ccc(-c2ccccc2)cc1)C(=O)O; Oic = O=C(O)[C@@H]1C[C@@H]2CCCC[C@@H]2N1; Phe(4-Cl) = N[C@@H](Cc1ccc(Cl)cc1)C(=O)O; Phe(4-I) = N[C@@H](Cc1ccc(I)cc1)C(=O)O; γGlu = O=C(O)[C@H](CCC(=O)[*:2])N[*:1]; NMeR = CN[C@@H](CCCNC(=N)N)C(=O)O; Tridecanoyl = CCCCCCCCCCCCC(=O)*; hArg = N=C(N)NCCCC[C@H](N)C(=O)O; β3hF = N[C@H](CC(=O)O)Cc1ccccc1; Cha = N[C@@H](CC1CCCCC1)C(=O)O; NMeL = CN[C@@H](CC(C)C)C(=O)O; αMeP = C[C@@]1(C(=O)O)CCCN1; β3hP = O=C(O)C[C@@H]1CCCN1; Nle = CCCC[C@H](N)C(=O)O; Deg = CCC(N)(CC)C(=O)O; AEEA = NCCOCCOCC(=O)O

T1: rat APJ receptor (rat, UniProt Q9JHG3 1-377)
T1 sequence (looked up): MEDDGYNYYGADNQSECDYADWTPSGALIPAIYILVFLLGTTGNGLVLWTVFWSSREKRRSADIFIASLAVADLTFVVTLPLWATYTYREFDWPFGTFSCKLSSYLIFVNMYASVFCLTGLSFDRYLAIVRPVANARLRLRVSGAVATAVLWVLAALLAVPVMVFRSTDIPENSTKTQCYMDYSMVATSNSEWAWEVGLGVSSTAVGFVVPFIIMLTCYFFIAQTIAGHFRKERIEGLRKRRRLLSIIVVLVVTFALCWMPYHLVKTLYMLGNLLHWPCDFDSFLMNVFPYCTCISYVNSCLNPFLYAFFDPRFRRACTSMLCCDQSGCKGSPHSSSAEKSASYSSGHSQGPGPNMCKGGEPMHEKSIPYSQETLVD

T2: human APJ receptor (human, UniProt P35414 1-380)
T2 sequence (looked up): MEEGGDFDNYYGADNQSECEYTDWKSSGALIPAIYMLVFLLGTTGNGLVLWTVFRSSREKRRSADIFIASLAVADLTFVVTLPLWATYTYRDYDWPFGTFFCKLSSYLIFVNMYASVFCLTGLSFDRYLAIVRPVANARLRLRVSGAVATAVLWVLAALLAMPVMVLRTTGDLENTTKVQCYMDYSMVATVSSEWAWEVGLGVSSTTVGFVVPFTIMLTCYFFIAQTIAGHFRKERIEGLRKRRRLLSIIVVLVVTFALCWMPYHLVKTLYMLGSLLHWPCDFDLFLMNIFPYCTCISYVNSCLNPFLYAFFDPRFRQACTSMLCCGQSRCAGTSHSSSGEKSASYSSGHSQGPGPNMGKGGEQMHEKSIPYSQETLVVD

T3: rat APJ receptor (rat, UniProt Q9JHG3 1-377)
T3 sequence (looked up): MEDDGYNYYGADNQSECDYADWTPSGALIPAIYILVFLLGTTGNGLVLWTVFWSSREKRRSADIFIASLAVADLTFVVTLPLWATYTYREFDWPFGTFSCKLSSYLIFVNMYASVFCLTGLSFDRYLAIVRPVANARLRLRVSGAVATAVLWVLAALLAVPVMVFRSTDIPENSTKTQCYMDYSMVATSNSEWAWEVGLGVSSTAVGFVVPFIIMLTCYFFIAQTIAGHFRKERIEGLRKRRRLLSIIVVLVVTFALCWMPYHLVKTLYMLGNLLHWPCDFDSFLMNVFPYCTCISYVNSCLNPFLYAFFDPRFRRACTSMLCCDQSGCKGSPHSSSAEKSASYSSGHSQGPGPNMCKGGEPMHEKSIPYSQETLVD

T4: human APJ receptor (human, UniProt P35414 1-380)
T4 sequence (looked up): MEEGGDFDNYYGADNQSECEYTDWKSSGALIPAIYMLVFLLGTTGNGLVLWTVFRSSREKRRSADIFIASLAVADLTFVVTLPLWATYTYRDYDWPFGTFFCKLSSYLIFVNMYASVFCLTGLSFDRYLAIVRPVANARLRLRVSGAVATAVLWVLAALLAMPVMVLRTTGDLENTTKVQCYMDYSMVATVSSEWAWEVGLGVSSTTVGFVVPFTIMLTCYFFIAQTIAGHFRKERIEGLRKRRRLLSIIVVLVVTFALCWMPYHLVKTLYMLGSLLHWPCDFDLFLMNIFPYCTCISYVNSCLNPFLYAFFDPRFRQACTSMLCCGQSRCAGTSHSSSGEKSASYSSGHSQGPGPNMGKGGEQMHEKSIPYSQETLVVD


Columns and labels:
Assay in all cases: cell-based or functional assay
[1] = molecular target: T1, rat APJ receptor
[2] = molecular target: T2, human APJ receptor
[3] = molecular target: T3, rat APJ receptor; remark: listed apart in the source
[4] = molecular target: T4, human APJ receptor; remark: listed apart in the source

Row | Binder | EC50 Rat APJ Receptor [1] | EC50 Human APJ Receptor [2] | EC50 Rat APJ Receptor (GTPγS assay) [3] | EC50 Human APJ Receptor (GTPγS assay) [4]
1 | Ac-[hArg]EQ[hArg]P[dR][NMeL]SHKG[Oic][Phe(4-I)]P[dBip]-OH [SEQ ID NO: 76] | 0.994 nM | 1.84 nM | – | –
2 | Tridecanoyl-[γGlu][AEEA][AEEA][dQ]RP[NMeR][Cha]SHKG[αMeP][Nle][Phe(4-Cl)]-OH (SMILES CCCCCCCCCCCCC(=O)N[C@@H](CCC(=O)NCCOCCOCC(=O)NCCOCCOCC(=O)N[C@H](CCC(N)=O)C(=O)N[C@@H](CCCNC(=N)N)C(=O)N1CCC[C@H]1C(=O)N(C)[C@@H](CCCNC(=N)N)C(=O)N[C@@H](CC1CCCCC1)C(=O)N[C@@H](CO)C(=O)N[C@@H](Cc1c[nH]cn1)C(=O)N[C@@H](CCCCN)C(=O)NCC(=O)N1CCC[C@@]1(C)C(=O)N[C@@H](CCCC)C(=O)N[C@@H](Cc1ccc(Cl)cc1)C(=O)O)C(=O)O) [Apelin polypeptide SEQ ID NO: 551] | – | – | 1.15 nM | 0.235 nM
3 | Tridecanoyl-[γGlu][AEEA][AEEA]QRP[NMeR][Cha]SHKG[Oic][Nle]P[β3hF]-OH (SMILES CCCCCCCCCCCCC(=O)N[C@@H](CCC(=O)NCCOCCOCC(=O)NCCOCCOCC(=O)N[C@@H](CCC(N)=O)C(=O)N[C@@H](CCCNC(=N)N)C(=O)N1CCC[C@H]1C(=O)N(C)[C@@H](CCCNC(=N)N)C(=O)N[C@@H](CC1CCCCC1)C(=O)N[C@@H](CO)C(=O)N[C@@H](Cc1c[nH]cn1)C(=O)N[C@@H](CCCCN)C(=O)NCC(=O)N1[C@H](C(=O)N[C@@H](CCCC)C(=O)N2CCC[C@H]2C(=O)N[C@H](CC(=O)O)Cc2ccccc2)C[C@@H]2CCCC[C@@H]21)C(=O)O) [Apelin polypeptide SEQ ID NO: 379] | – | – | 8.38 nM | 7.52 nM
4 | Tridecanoyl-[AC4Abu][AEEA][AEEA]QRP[NMeR][Cha]SHKG[Deg][Nle]P[Phe(4-Cl)]-OH (SMILES CCCCCCCCCCCCC(=O)NCCC(C(=O)O)C(=O)NCCOCCOCC(=O)NCCOCCOCC(=O)N[C@@H](CCC(N)=O)C(=O)N[C@@H](CCCNC(=N)N)C(=O)N1CCC[C@H]1C(=O)N(C)[C@@H](CCCNC(=N)N)C(=O)N[C@@H](CC1CCCCC1)C(=O)N[C@@H](CO)C(=O)N[C@@H](Cc1c[nH]cn1)C(=O)N[C@@H](CCCCN)C(=O)NCC(=O)NC(CC)(CC)C(=O)N[C@@H](CCCC)C(=O)N1CCC[C@H]1C(=O)N[C@@H](Cc1ccc(Cl)cc1)C(=O)O) [Apelin polypeptide SEQ ID NO: 415] | – | – | 4.01 nM | 3.92 nM
5 | Tridecanoyl-[AC4Abu][AEEA][AEEA]QRP[NMeR][Cha]SHKG[β3hP][Nle]P[Phe(4-Cl)]-OH (SMILES CCCCCCCCCCCCC(=O)NCCC(C(=O)O)C(=O)NCCOCCOCC(=O)NCCOCCOCC(=O)N[C@@H](CCC(N)=O)C(=O)N[C@@H](CCCNC(=N)N)C(=O)N1CCC[C@H]1C(=O)N(C)[C@@H](CCCNC(=N)N)C(=O)N[C@@H](CC1CCCCC1)C(=O)N[C@@H](CO)C(=O)N[C@@H](Cc1c[nH]cn1)C(=O)N[C@@H](CCCCN)C(=O)NCC(=O)N1CCC[C@H]1CC(=O)N[C@@H](CCCC)C(=O)N1CCC[C@H]1C(=O)N[C@@H](Cc1ccc(Cl)cc1)C(=O)O) [Apelin polypeptide SEQ ID NO: 417] | – | – | 8.1 nM | 5.99 nM
6 | XXXQRPRLSHKGPXPF ({Acetyl-NH}[AC4Abu][Aeea][Aeea]QRP[NMeArg]LSHKGP[Nle]P[4-Cl-F]{COOH}) [SEQ ID NO: 88] | 0.388 nM | 0.22 nM | – | –
7 | Ac-[hArg][dR]Q[hArg]PE[NMeL]SHKG[Oic][Phe(4-I)]P[dBip]-OH (SMILES CC(=O)N[C@@H](CCCCNC(=N)N)C(=O)N[C@H](CCCNC(=N)N)C(=O)N[C@@H](CCC(N)=O)C(=O)N[C@@H](CCCCNC(=N)N)C(=O)N1CCC[C@H]1C(=O)N[C@@H](CCC(=O)O)C(=O)N(C)[C@@H](CC(C)C)C(=O)N[C@@H](CO)C(=O)N[C@@H](Cc1c[nH]cn1)C(=O)N[C@@H](CCCCN)C(=O)NCC(=O)N1[C@H](C(=O)N[C@@H](Cc2ccc(I)cc2)C(=O)N2CCC[C@H]2C(=O)N[C@H](Cc2ccc(-c3ccccc3)cc2)C(=O)O)C[C@@H]2CCCC[C@@H]21) [SEQ ID NO: 79] | 0.341 nM | 0.678 nM | – | –
8 | Ac-[hArg][dR]Q[hArg]P[dR][NMeL]EHKG[Oic][Phe(4-I)]P[dBip]-OH (SMILES CC(=O)N[C@@H](CCCCNC(=N)N)C(=O)N[C@H](CCCNC(=N)N)C(=O)N[C@@H](CCC(N)=O)C(=O)N[C@@H](CCCCNC(=N)N)C(=O)N1CCC[C@H]1C(=O)N[C@H](CCCNC(=N)N)C(=O)N(C)[C@@H](CC(C)C)C(=O)N[C@@H](CCC(=O)O)C(=O)N[C@@H](Cc1c[nH]cn1)C(=O)N[C@@H](CCCCN)C(=O)NCC(=O)N1[C@H](C(=O)N[C@@H](Cc2ccc(I)cc2)C(=O)N2CCC[C@H]2C(=O)N[C@H](Cc2ccc(-c3ccccc3)cc2)C(=O)O)C[C@@H]2CCCC[C@@H]21) [SEQ ID NO: 81] | 70.6 nM | 83.8 nM | – | –
